# Starred links: 1 amine or outer side, 2 acyl side, 3 side chain; linkers in the order of their positions; H or OH if unused. Non-standard residues stand in square brackets, D forms with d. Groups on a side chain read outwards from the residue. No end group written: not given here. *: point of attachment. C16 diacid = O=C(O)CCCCCCCCCCCCCCC(=O)*; γGlu = O=C(O)[C@H](CCC(=O)[*:2])N[*:1]; AEEA = NCCOCCOCC(=O)O; Aib = CC(C)(N)C(=O)O
# T1: CRF1R receptor (anti-target) (UniProt P34998 24-415, limits assumed)
# T1 sequence (looked up): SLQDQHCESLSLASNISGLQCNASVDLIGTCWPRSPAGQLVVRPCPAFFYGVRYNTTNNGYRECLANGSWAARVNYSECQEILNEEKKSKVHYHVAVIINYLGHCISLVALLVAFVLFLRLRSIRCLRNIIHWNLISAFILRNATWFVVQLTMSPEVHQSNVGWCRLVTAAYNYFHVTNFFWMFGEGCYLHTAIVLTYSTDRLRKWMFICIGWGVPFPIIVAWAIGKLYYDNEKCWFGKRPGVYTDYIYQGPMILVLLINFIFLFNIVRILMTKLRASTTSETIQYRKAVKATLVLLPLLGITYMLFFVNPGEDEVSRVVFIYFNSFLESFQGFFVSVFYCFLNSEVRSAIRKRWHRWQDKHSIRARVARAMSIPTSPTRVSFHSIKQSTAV
# T2: CRF1R receptor (anti-target) (UniProt P34998 24-415, limits assumed)
# T2 sequence (looked up): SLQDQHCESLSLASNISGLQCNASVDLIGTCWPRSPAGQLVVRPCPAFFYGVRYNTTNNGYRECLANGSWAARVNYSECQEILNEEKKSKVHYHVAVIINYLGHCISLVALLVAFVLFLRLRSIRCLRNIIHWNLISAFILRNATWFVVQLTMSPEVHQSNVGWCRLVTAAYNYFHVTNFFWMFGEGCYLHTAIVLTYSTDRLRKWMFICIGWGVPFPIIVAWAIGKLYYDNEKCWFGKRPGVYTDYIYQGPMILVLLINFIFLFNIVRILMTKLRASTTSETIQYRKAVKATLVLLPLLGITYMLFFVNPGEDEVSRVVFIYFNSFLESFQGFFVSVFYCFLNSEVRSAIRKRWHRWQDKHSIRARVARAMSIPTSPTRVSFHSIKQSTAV
# Tests used:
# Assay in all cases: cell-based or functional assay
# [1] = target: T1, CRF1R receptor (anti-target)
# [2] = target: human corticotropin-releasing factor 2α (CRF2α receptor) (human), Q13324
# Chain of human corticotropin-releasing factor 2α (CRF2α receptor) (human), Q13324 (Q13324 20-411): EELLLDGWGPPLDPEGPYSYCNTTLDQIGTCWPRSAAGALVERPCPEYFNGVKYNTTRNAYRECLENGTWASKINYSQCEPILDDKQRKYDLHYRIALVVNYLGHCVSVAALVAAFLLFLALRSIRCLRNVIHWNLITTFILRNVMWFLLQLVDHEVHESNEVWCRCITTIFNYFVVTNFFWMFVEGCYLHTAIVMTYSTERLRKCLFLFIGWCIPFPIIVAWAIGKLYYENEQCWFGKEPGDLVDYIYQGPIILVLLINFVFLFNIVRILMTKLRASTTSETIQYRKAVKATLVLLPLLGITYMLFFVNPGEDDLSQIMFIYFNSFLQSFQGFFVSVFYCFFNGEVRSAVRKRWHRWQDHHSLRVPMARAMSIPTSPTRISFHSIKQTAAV
# [3] = target: T2, CRF1R receptor (anti-target); remark: listed apart in the source
Binder,CRF1/CRF2 ratio (of EC50) [1],"CRF1 EC50 (cAMP, HTRF) [1] [nM]","EC50 [nM], 0% HSA (cAMP, HTRF) [2] [nM]","EC50 [nM] 0% HSA (cAMP, HTRF) [3] [nM]",Emax (%) (100% = Sauvagine at 100 nM) [3]
IVLSLD[dV]PIKLK([γGlu-C16 diacid])QILLKQERQKKQREQAEKNKQILEQV-NH2 (N-terminus assumed; SMILES CC[C@H](C)[C@H](N)C(=O)N[C@H](C(=O)N[C@@H](CC(C)C)C(=O)N[C@@H](CO)C(=O)N[C@@H](CC(C)C)C(=O)N[C@@H](CC(=O)O)C(=O)N[C@@H](C(=O)N1CCC[C@H]1C(=O)N[C@H](C(=O)N[C@@H](CCCCN)C(=O)N[C@@H](CC(C)C)C(=O)N[C@@H](CCCCNC(=O)CC[C@H](NC(=O)CCCCCCCCCCCCCCC(=O)O)C(=O)O)C(=O)N[C@@H](CCC(N)=O)C(=O)N[C@H](C(=O)N[C@@H](CC(C)C)C(=O)N[C@@H](CC(C)C)C(=O)N[C@@H](CCCCN)C(=O)N[C@@H](CCC(N)=O)C(=O)N[C@@H](CCC(=O)O)C(=O)N[C@@H](CCCNC(=N)N)C(=O)N[C@@H](CCC(N)=O)C(=O)N[C@@H](CCCCN)C(=O)N[C@@H](CCCCN)C(=O)N[C@@H](CCC(N)=O)C(=O)N[C@@H](CCCNC(=N)N)C(=O)N[C@@H](CCC(=O)O)C(=O)N[C@@H](CCC(N)=O)C(=O)N[C@@H](C)C(=O)N[C@@H](CCC(=O)O)C(=O)N[C@@H](CCCCN)C(=O)N[C@@H](CC(N)=O)C(=O)N[C@@H](CCCCN)C(=O)N[C@@H](CCC(N)=O)C(=O)N[C@H](C(=O)N[C@@H](CC(C)C)C(=O)N[C@@H](CCC(=O)O)C(=O)N[C@@H](CCC(N)=O)C(=O)N[C@H](C(N)=O)C(C)C)[C@@H](C)CC)[C@@H](C)CC)[C@@H](C)CC)C(C)C)C(C)C) [peptide of SEQ ID NO: 190],> 500,> 100,,,
IVLSLD[dV]PIKLK([γGlu-C16 diacid])QILLKQARQK[Aib]QRAQAEKNKRILERV-NH2 (N-terminus assumed; SMILES CC[C@H](C)[C@H](N)C(=O)N[C@H](C(=O)N[C@@H](CC(C)C)C(=O)N[C@@H](CO)C(=O)N[C@@H](CC(C)C)C(=O)N[C@@H](CC(=O)O)C(=O)N[C@@H](C(=O)N1CCC[C@H]1C(=O)N[C@H](C(=O)N[C@@H](CCCCN)C(=O)N[C@@H](CC(C)C)C(=O)N[C@@H](CCCCNC(=O)CC[C@H](NC(=O)CCCCCCCCCCCCCCC(=O)O)C(=O)O)C(=O)N[C@@H](CCC(N)=O)C(=O)N[C@H](C(=O)N[C@@H](CC(C)C)C(=O)N[C@@H](CC(C)C)C(=O)N[C@@H](CCCCN)C(=O)N[C@@H](CCC(N)=O)C(=O)N[C@@H](C)C(=O)N[C@@H](CCCNC(=N)N)C(=O)N[C@@H](CCC(N)=O)C(=O)N[C@@H](CCCCN)C(=O)NC(C)(C)C(=O)N[C@@H](CCC(N)=O)C(=O)N[C@@H](CCCNC(=N)N)C(=O)N[C@@H](C)C(=O)N[C@@H](CCC(N)=O)C(=O)N[C@@H](C)C(=O)N[C@@H](CCC(=O)O)C(=O)N[C@@H](CCCCN)C(=O)N[C@@H](CC(N)=O)C(=O)N[C@@H](CCCCN)C(=O)N[C@@H](CCCNC(=N)N)C(=O)N[C@H](C(=O)N[C@@H](CC(C)C)C(=O)N[C@@H](CCC(=O)O)C(=O)N[C@@H](CCCNC(=N)N)C(=O)N[C@H](C(N)=O)C(C)C)[C@@H](C)CC)[C@@H](C)CC)[C@@H](C)CC)C(C)C)C(C)C) [peptide of SEQ ID NO: 197],> 500,> 100,,,
IVLSLD[dV]PIGLK([AEEA-AEEA-γGlu-C16 diacid])QILLKQERQKK[Aib]REQAETNKQILAQV-NH2 (N-terminus assumed; SMILES CC[C@H](C)[C@H](N)C(=O)N[C@H](C(=O)N[C@@H](CC(C)C)C(=O)N[C@@H](CO)C(=O)N[C@@H](CC(C)C)C(=O)N[C@@H](CC(=O)O)C(=O)N[C@@H](C(=O)N1CCC[C@H]1C(=O)N[C@H](C(=O)NCC(=O)N[C@@H](CC(C)C)C(=O)N[C@@H](CCCCNC(=O)COCCOCCNC(=O)COCCOCCNC(=O)CC[C@H](NC(=O)CCCCCCCCCCCCCCC(=O)O)C(=O)O)C(=O)N[C@@H](CCC(N)=O)C(=O)N[C@H](C(=O)N[C@@H](CC(C)C)C(=O)N[C@@H](CC(C)C)C(=O)N[C@@H](CCCCN)C(=O)N[C@@H](CCC(N)=O)C(=O)N[C@@H](CCC(=O)O)C(=O)N[C@@H](CCCNC(=N)N)C(=O)N[C@@H](CCC(N)=O)C(=O)N[C@@H](CCCCN)C(=O)N[C@@H](CCCCN)C(=O)NC(C)(C)C(=O)N[C@@H](CCCNC(=N)N)C(=O)N[C@@H](CCC(=O)O)C(=O)N[C@@H](CCC(N)=O)C(=O)N[C@@H](C)C(=O)N[C@@H](CCC(=O)O)C(=O)N[C@H](C(=O)N[C@@H](CC(N)=O)C(=O)N[C@@H](CCCCN)C(=O)N[C@@H](CCC(N)=O)C(=O)N[C@H](C(=O)N[C@@H](CC(C)C)C(=O)N[C@@H](C)C(=O)N[C@@H](CCC(N)=O)C(=O)N[C@H](C(N)=O)C(C)C)[C@@H](C)CC)[C@@H](C)O)[C@@H](C)CC)[C@@H](C)CC)C(C)C)C(C)C) [peptide of SEQ ID NO: 202],,,0.87,> 100,5.4
IVLSLD[dV]PIGLK([AEEA-AEEA-γGlu-γGlu-C16 diacid])QILLKQERQKK[Aib]REQAETNKQILAQV-NH2 (N-terminus assumed; SMILES CC[C@H](C)[C@H](N)C(=O)N[C@H](C(=O)N[C@@H](CC(C)C)C(=O)N[C@@H](CO)C(=O)N[C@@H](CC(C)C)C(=O)N[C@@H](CC(=O)O)C(=O)N[C@@H](C(=O)N1CCC[C@H]1C(=O)N[C@H](C(=O)NCC(=O)N[C@@H](CC(C)C)C(=O)N[C@@H](CCCCNC(=O)COCCOCCNC(=O)COCCOCCNC(=O)CC[C@H](NC(=O)CC[C@H](NC(=O)CCCCCCCCCCCCCCC(=O)O)C(=O)O)C(=O)O)C(=O)N[C@@H](CCC(N)=O)C(=O)N[C@H](C(=O)N[C@@H](CC(C)C)C(=O)N[C@@H](CC(C)C)C(=O)N[C@@H](CCCCN)C(=O)N[C@@H](CCC(N)=O)C(=O)N[C@@H](CCC(=O)O)C(=O)N[C@@H](CCCNC(=N)N)C(=O)N[C@@H](CCC(N)=O)C(=O)N[C@@H](CCCCN)C(=O)N[C@@H](CCCCN)C(=O)NC(C)(C)C(=O)N[C@@H](CCCNC(=N)N)C(=O)N[C@@H](CCC(=O)O)C(=O)N[C@@H](CCC(N)=O)C(=O)N[C@@H](C)C(=O)N[C@@H](CCC(=O)O)C(=O)N[C@H](C(=O)N[C@@H](CC(N)=O)C(=O)N[C@@H](CCCCN)C(=O)N[C@@H](CCC(N)=O)C(=O)N[C@H](C(=O)N[C@@H](CC(C)C)C(=O)N[C@@H](C)C(=O)N[C@@H](CCC(N)=O)C(=O)N[C@H](C(N)=O)C(C)C)[C@@H](C)CC)[C@@H](C)O)[C@@H](C)CC)[C@@H](C)CC)C(C)C)C(C)C) [peptide of SEQ ID NO: 203],,,4.7,> 100,4.7

# Results, then the binder that gave them:
CRF1/CRF2 ratio (of EC50) [1],"CRF1 EC50 (cAMP, HTRF) [1] [nM]","EC50 [nM], 0% HSA (cAMP, HTRF) [2] [nM]","EC50 [nM] 0% HSA (cAMP, HTRF) [3] [nM]",Emax (%) (100% = Sauvagine at 100 nM) [3],Binder
,,2.71,> 100,3.2,IVLSLD[dV]PTKLK([γGlu-C16 diacid])QKLLKQERQRKEREQAEKNARILARV-NH2 (N-terminus assumed; SMILES CC[C@H](C)[C@H](N)C(=O)N[C@H](C(=O)N[C@@H](CC(C)C)C(=O)N[C@@H](CO)C(=O)N[C@@H](CC(C)C)C(=O)N[C@@H](CC(=O)O)C(=O)N[C@@H](C(=O)N1CCC[C@H]1C(=O)N[C@H](C(=O)N[C@@H](CCCCN)C(=O)N[C@@H](CC(C)C)C(=O)N[C@@H](CCCCNC(=O)CC[C@H](NC(=O)CCCCCCCCCCCCCCC(=O)O)C(=O)O)C(=O)N[C@@H](CCC(N)=O)C(=O)N[C@@H](CCCCN)C(=O)N[C@@H](CC(C)C)C(=O)N[C@@H](CC(C)C)C(=O)N[C@@H](CCCCN)C(=O)N[C@@H](CCC(N)=O)C(=O)N[C@@H](CCC(=O)O)C(=O)N[C@@H](CCCNC(=N)N)C(=O)N[C@@H](CCC(N)=O)C(=O)N[C@@H](CCCNC(=N)N)C(=O)N[C@@H](CCCCN)C(=O)N[C@@H](CCC(=O)O)C(=O)N[C@@H](CCCNC(=N)N)C(=O)N[C@@H](CCC(=O)O)C(=O)N[C@@H](CCC(N)=O)C(=O)N[C@@H](C)C(=O)N[C@@H](CCC(=O)O)C(=O)N[C@@H](CCCCN)C(=O)N[C@@H](CC(N)=O)C(=O)N[C@@H](C)C(=O)N[C@@H](CCCNC(=N)N)C(=O)N[C@H](C(=O)N[C@@H](CC(C)C)C(=O)N[C@@H](C)C(=O)N[C@@H](CCCNC(=N)N)C(=O)N[C@H](C(N)=O)C(C)C)[C@@H](C)CC)[C@@H](C)O)C(C)C)C(C)C) [peptide of SEQ ID NO: 221]
,,7.38,> 100,6.2,IVLSLD[dV]PTKLK([γGlu-C16 diacid])QKLLKQERQRKEREQAEKNVRILERV-NH2 (N-terminus assumed; SMILES CC[C@H](C)[C@H](N)C(=O)N[C@H](C(=O)N[C@@H](CC(C)C)C(=O)N[C@@H](CO)C(=O)N[C@@H](CC(C)C)C(=O)N[C@@H](CC(=O)O)C(=O)N[C@@H](C(=O)N1CCC[C@H]1C(=O)N[C@H](C(=O)N[C@@H](CCCCN)C(=O)N[C@@H](CC(C)C)C(=O)N[C@@H](CCCCNC(=O)CC[C@H](NC(=O)CCCCCCCCCCCCCCC(=O)O)C(=O)O)C(=O)N[C@@H](CCC(N)=O)C(=O)N[C@@H](CCCCN)C(=O)N[C@@H](CC(C)C)C(=O)N[C@@H](CC(C)C)C(=O)N[C@@H](CCCCN)C(=O)N[C@@H](CCC(N)=O)C(=O)N[C@@H](CCC(=O)O)C(=O)N[C@@H](CCCNC(=N)N)C(=O)N[C@@H](CCC(N)=O)C(=O)N[C@@H](CCCNC(=N)N)C(=O)N[C@@H](CCCCN)C(=O)N[C@@H](CCC(=O)O)C(=O)N[C@@H](CCCNC(=N)N)C(=O)N[C@@H](CCC(=O)O)C(=O)N[C@@H](CCC(N)=O)C(=O)N[C@@H](C)C(=O)N[C@@H](CCC(=O)O)C(=O)N[C@@H](CCCCN)C(=O)N[C@@H](CC(N)=O)C(=O)N[C@H](C(=O)N[C@@H](CCCNC(=N)N)C(=O)N[C@H](C(=O)N[C@@H](CC(C)C)C(=O)N[C@@H](CCC(=O)O)C(=O)N[C@@H](CCCNC(=N)N)C(=O)N[C@H](C(N)=O)C(C)C)[C@@H](C)CC)C(C)C)[C@@H](C)O)C(C)C)C(C)C) [peptide of SEQ ID NO: 222]

# Reference: patent US12679878B2, “CRF2 receptor agonists and their use in therapy” (SANOFI, priority 2020, dated 2026)
